Biological target: T1, carcinoembryonic antigen (CEA) expressed on LS 174T cells (human, UniProt P06731 35-685)
T1 sequence (looked up): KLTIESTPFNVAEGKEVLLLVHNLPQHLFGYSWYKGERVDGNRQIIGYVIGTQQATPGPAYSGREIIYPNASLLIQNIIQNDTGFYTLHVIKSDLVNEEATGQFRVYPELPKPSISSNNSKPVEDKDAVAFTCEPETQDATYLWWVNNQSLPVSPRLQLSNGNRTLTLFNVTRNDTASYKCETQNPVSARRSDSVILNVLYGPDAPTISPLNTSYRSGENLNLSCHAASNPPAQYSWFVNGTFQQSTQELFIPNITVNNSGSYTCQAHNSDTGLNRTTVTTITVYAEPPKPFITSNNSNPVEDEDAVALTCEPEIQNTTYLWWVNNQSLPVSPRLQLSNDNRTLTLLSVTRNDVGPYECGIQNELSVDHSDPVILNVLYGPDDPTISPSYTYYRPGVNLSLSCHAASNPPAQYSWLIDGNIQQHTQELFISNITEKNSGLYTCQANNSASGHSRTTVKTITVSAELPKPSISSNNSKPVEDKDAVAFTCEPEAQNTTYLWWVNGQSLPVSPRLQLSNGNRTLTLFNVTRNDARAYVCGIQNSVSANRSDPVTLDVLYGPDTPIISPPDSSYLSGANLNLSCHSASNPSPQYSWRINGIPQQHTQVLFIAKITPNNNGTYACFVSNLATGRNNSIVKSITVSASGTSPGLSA
Assay: cell-based or functional assay

B1: cAb-CEA5-βL conjugate (other)
chain: QVQLVESGGGSVQAGGSLRLSCAASGDTYGSYWMGWFRQAPGKEREGVAAINRGGGYTVYADSVKGRFTISRDTAKNTVYLQMNSLRPDDTADYYCAASGVLGGLHEDWFNYWGQGTQVTVSSAHHSEDPSSKAPKAPMGTPVSEKQLAEVVANTITPLMKAQSVPGMAVAVIYQGKPHYYTFGKADIAANKPVTPQTLFELGSISKTFTGVLGGDAIARGEISLDDAVTRYWPQLTGKQWQGIRMLDLATYTAGGLPLQVPDEVTDNASLLRFYQNWQPQWKPGTTRLYANASIGLFGALAVKPSGMPYEQAMTTRVLKPLKLDHTWINVPKAEEAHYAWGYRDGKAVRVSPGMLDAQAYGVKTNVQDMANWVMANMAPENVADASLKQGIALAQSRYWRIGSMYQGLGWEMLNWPVEANTVVEGSDSKVALAPLPVAEVNPPAPPVKASWVHKTGSTGGFGSYVAFIPEKQIGIVMLANTSYPNPARVEAAYHILEALQHHHHHH
- concentration of 125I-labelled conjugate in LS 174T tumor xenografts against other tissues in nude mice: > 10 fold

Reference: US20050048060A1 (VLAAMS INTERUNIVERSITAIR INSTITUUT, published 2005)
